Experimental findings from patent CN115073602A (SUZHOU ABCARTA MEDICAL TECH CO LTD, dated 2022) are described below.

One assay addresses T1, CD3抗原 (SEQ ID NO:1 合成多肽).
T1 construct: KLH/OVA conjugation is stated for immunisation only; also called CD3的多肽
T1 peptide: KGQRDLYSGLNQRRI
Briefly: ELISA screening of hybridoma clones on CD3 antigen (SEQ ID NO:1). (In general: In an ELISA, binding on a coated surface is turned into a signal by an enzyme label.)

The next assay addresses T2, CD3蛋白 (表达CD3蛋白的细胞).
T2 construct: whole, on cells; also called 表达CD3蛋白细胞
Nature of the assay: flow cytometry on CD3-expressing cells, against blank control without antibody.

T2 sequence (P07766 23-207): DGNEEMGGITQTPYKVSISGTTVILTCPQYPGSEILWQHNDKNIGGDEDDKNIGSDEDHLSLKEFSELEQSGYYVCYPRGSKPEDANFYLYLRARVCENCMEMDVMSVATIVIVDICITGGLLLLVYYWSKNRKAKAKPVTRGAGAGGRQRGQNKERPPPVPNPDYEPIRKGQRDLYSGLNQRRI

B1: 230B2F6抗CD3重组兔单克隆抗体 (antibody, V domains shown)
VH: QSLEESGGRLVTPGTPLTLTCTASGFSLNDYWMSWVRQAPGKGLEWIGIIIRGGTTWYANWVKGRFTISKTSTTVDLKMTSPTTEDTATYFCARIGGGNTGFNLWGPGTLVTVSS
VL: AQVLTQTPSSVSEPVGGTVTINCQASENIYISLAWYQQKPGQPPNLLIYDASDLASGVPSRFSGSGSGTEFTLTISGVQCEDAATYYCQSYNYSSVTFGGGTEVVVK
notes: also called 230B2F6抗体; 230B2F6抗CD3单克隆抗体
Regarding B1, the binding result with CD3抗原 (SEQ ID NO:1 合成多肽) is “binds”. Besides, the “fold increase of MFI over blank control” value with CD3蛋白 (表达CD3蛋白的细胞) was 1070 fold.
